Results published in the supplement of paper PMC10567573.

B1: EPB41L3 (parent)
chain: SMQCKVILLDGSEYTCDVEKRSRG

Variants of: B1
Test: protein stability index of a GFP-peptide fusion (GPS, HEK-293T) (PSI 1-6); higher = more stable
Settings: c terminus: a fixed tail appended
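Note: lentivirally expressed fusions sorted by FACS into six bins by GFP to DsRed ratio, PSI derived from sequencing read proportions per bin multiplied by bin number.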

Variant | protein stability index
SMQCKVILIDGSEYTCDVEKRSRG [L9I] | 2.97
SMQCKVILADGSEYTCDVEKRSRG [L9A] | 3.6
SMQCKVILNDGSEYTCDVEKRSRG [L9N] | 3.92
SMQCKVILYDGSEYTCDVEKRSRG [L9Y] | 2.41
SMQCKVILTDGSEYTCDVEKRSRG [L9T] | 3.51
SMQCKVILMDGSEYTCDVEKRSRG [L9M] | 3.2
SMQCKVILPDGSEYTCDVEKRSRG [L9P] | 3.71
SMQCKVILVDGSEYTCDVEKRSRG [L9V] | 3.31
SMQCKVILRDGSEYTCDVEKRSRG [L9R] | 3.03
SMQCKVILQDGSEYTCDVEKRSRG [L9Q] | 3.94
SMQCKVILKDGSEYTCDVEKRSRG [L9K] | 3.81
SMQCKVILDDGSEYTCDVEKRSRG [L9D] | 4.09
SMQCKVILGDGSEYTCDVEKRSRG [L9G] | 3.72
SMQCKVILEDGSEYTCDVEKRSRG [L9E] | 4.28
SMQCKVILSDGSEYTCDVEKRSRG [L9S] | 2.85
SMQCKVILCDGSEYTCDVEKRSRG [L9C] | 2.79
SMQCKVILFDGSEYTCDVEKRSRG [L9F] | 2.83
SMQCKVILHDGSEYTCDVEKRSRG [L9H] | 3.44
SMQCKVILLHGSEYTCDVEKRSRG [D10H] | 1.5
SMQCKVILLGGSEYTCDVEKRSRG [D10G] | 2.14
SMQCKVILLRGSEYTCDVEKRSRG [D10R] | 2.03
SMQCKVILLTGSEYTCDVEKRSRG [D10T] | 2.75
SMQCKVILLNGSEYTCDVEKRSRG [D10N] | 1.89
SMQCKVILLSGSEYTCDVEKRSRG [D10S] | 2.04

Variant | protein stability index
SMQCKVILLKGSEYTCDVEKRSRG [D10K] | 3.15
SMQCKVILLQGSEYTCDVEKRSRG [D10Q] | 2.41
SMQCKVILLEGSEYTCDVEKRSRG [D10E] | 2.24
SMQCKVILLYGSEYTCDVEKRSRG [D10Y] | 1.77
SMQCKVILLFGSEYTCDVEKRSRG [D10F] | 2.14
SMQCKVILLWGSEYTCDVEKRSRG [D10W] | 1.09
SMQCKVILLVGSEYTCDVEKRSRG [D10V] | 1.62
SMQCKVILLMGSEYTCDVEKRSRG [D10M] | 1.5
SMQCKVILLPGSEYTCDVEKRSRG [D10P] | 2.66
SMQCKVILLAGSEYTCDVEKRSRG [D10A] | 2.07
SMQCKVILLLGSEYTCDVEKRSRG [D10L] | 1.67
SMQCKVILLDLSEYTCDVEKRSRG [G11L] | 2.75
SMQCKVILLDHSEYTCDVEKRSRG [G11H] | 3.67
SMQCKVILLDCSEYTCDVEKRSRG [G11C] | 2.41
SMQCKVILLDESEYTCDVEKRSRG [G11E] | 2.03
SMQCKVILLDVSEYTCDVEKRSRG [G11V] | 2.64
SMQCKVILLDNSEYTCDVEKRSRG [G11N] | 3.26
SMQCKVILLDWSEYTCDVEKRSRG [G11W] | 1.68
SMQCKVILLDTSEYTCDVEKRSRG [G11T] | 2.76
SMQCKVILLDKSEYTCDVEKRSRG [G11K] | 2.94
SMQCKVILLDMSEYTCDVEKRSRG [G11M] | 1.73
SMQCKVILLDRSEYTCDVEKRSRG [G11R] | 2.64
SMQCKVILLDISEYTCDVEKRSRG [G11I] | 1.99
SMQCKVILLDYSEYTCDVEKRSRG [G11Y] | 2.51

Variant | protein stability index
SMQCKVILLDASEYTCDVEKRSRG [G11A] | 2.58
SMQCKVILLDDSEYTCDVEKRSRG [G11D] | 2.98
SMQCKVILLDQSEYTCDVEKRSRG [G11Q] | 2.87
SMQCKVILLDPSEYTCDVEKRSRG [G11P] | 3.22
SMQCKVILLDGYEYTCDVEKRSRG [S12Y] | 1.78
SMQCKVILLDGMEYTCDVEKRSRG [S12M] | 1.98
SMQCKVILLDGPEYTCDVEKRSRG [S12P] | 2.4
SMQCKVILLDGGEYTCDVEKRSRG [S12G] | 2.9
SMQCKVILLDGVEYTCDVEKRSRG [S12V] | 2.05
SMQCKVILLDGNEYTCDVEKRSRG [S12N] | 2.91
SMQCKVILLDGREYTCDVEKRSRG [S12R] | 2.99
SMQCKVILLDGDEYTCDVEKRSRG [S12D] | 3.08
SMQCKVILLDGWEYTCDVEKRSRG [S12W] | 1.94
SMQCKVILLDGKEYTCDVEKRSRG [S12K] | 3.51
SMQCKVILLDGCEYTCDVEKRSRG [S12C] | 2.14
SMQCKVILLDGAEYTCDVEKRSRG [S12A] | 3.39
SMQCKVILLDGHEYTCDVEKRSRG [S12H] | 2.34
SMQCKVILLDGIEYTCDVEKRSRG [S12I] | 2.39
SMQCKVILLDGQEYTCDVEKRSRG [S12Q] | 2.92
SMQCKVILLDGEEYTCDVEKRSRG [S12E] | 4.38
SMQCKVILLDGTEYTCDVEKRSRG [S12T] | 2.16
SMQCKVILLDGSEYTEDVEKRSRG [C16E] | 3.52
SMQCKVILLDGSEYTGDVEKRSRG [C16G] | 3.19
SMQCKVILLDGSEYTKDVEKRSRG [C16K] | 3.07

Variant | protein stability index
SMQCKVILLDGSEYTHDVEKRSRG [C16H] | 3.53
SMQCKVILLDGSEYTFDVEKRSRG [C16F] | 2.66
SMQCKVILLDGSEYTDDVEKRSRG [C16D] | 3.44
SMQCKVILLDGSEYTIDVEKRSRG [C16I] | 2.77
SMQCKVILLDGSEYTADVEKRSRG [C16A] | 2.95
SMQCKGILLDGSEYTCDVEKRSRG [V6G] | 3.61
SMQCKNILLDGSEYTCDVEKRSRG [V6N] | 4.5
SMQCKDILLDGSEYTCDVEKRSRG [V6D] | 4.38
SMQCKAILLDGSEYTCDVEKRSRG [V6A] | 2.1
SMQCKIILLDGSEYTCDVEKRSRG [V6I] | 2.2
SMQCKPILLDGSEYTCDVEKRSRG [V6P] | 4.68
SMQCKEILLDGSEYTCDVEKRSRG [V6E] | 4.55
SMQCKRILLDGSEYTCDVEKRSRG [V6R] | 3.62
SMQCKHILLDGSEYTCDVEKRSRG [V6H] | 2.56
SMQCKFILLDGSEYTCDVEKRSRG [V6F] | 2.76
SMQCKTILLDGSEYTCDVEKRSRG [V6T] | 3.71
SMQCKSILLDGSEYTCDVEKRSRG [V6S] | 4.07
SMQCKCILLDGSEYTCDVEKRSRG [V6C] | 2.07
SMQCKYILLDGSEYTCDVEKRSRG [V6Y] | 2.95
SMQCKMILLDGSEYTCDVEKRSRG [V6M] | 3.36
SMQCKLILLDGSEYTCDVEKRSRG [V6L] | 2.44
SMQCKQILLDGSEYTCDVEKRSRG [V6Q] | 2.97
